B1: 6FAM-ribo(C*G*C*C*U) (ssRNA)
RNA: CGCCU
modifications: * between all nucleotides (probably phosphorothioate; not defined in the material)
B2: 6FAM-deoxy(C*G*C*C*T) (ssDNA)
DNA: CGCCT
modifications: * between all nucleotides (probably phosphorothioate; not defined in the material)

Experiments:
Experiment in all cases: fluorescence polarization; 50 mM Tris-HCl pH 8.0, 50 mM KCl, 1 mM EDTA; 50 nM labeled oligonucleotide; temperature not stated
Conditions in all cases: protein: recombinant; chain copies: 2; label: 5'-6-carboxyfluorescein; single strand
[1] = molecular target: SAMHD1 HD domain WT (UniProt Q9Y3Z3 114-626)
[2] = molecular target: SAMHD1 HD domain R366H (UniProt Q9Y3Z3 114-626, R366H)
[3] = molecular target: SAMHD1 HD domain R366C (UniProt Q9Y3Z3 114-626, R366C)
Chain of SAMHD1 HD domain R366C (Q9Y3Z3 114-626 R366C): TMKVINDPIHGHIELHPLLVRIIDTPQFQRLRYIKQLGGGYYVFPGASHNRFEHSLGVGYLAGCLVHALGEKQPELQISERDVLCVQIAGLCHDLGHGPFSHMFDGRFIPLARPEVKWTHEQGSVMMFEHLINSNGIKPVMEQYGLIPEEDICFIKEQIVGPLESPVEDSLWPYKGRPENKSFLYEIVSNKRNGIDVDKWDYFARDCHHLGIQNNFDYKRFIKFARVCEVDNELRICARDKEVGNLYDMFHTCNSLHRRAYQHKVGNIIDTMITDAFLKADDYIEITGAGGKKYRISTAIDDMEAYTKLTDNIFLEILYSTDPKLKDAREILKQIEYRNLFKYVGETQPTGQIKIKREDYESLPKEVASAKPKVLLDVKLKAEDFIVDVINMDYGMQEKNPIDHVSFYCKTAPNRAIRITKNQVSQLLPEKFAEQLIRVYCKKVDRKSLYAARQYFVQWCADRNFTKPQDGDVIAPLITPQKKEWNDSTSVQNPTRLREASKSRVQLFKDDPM

Chain of SAMHD1 HD domain R366H (Q9Y3Z3 114-626 R366H): as the sequence (Q9Y3Z3 114-626 R366C) above, with C253H counted along it
Chain of SAMHD1 HD domain WT (Q9Y3Z3 114-626): as the sequence (Q9Y3Z3 114-626 R366C) above, with C253R counted along it

Row | Binder | Kd [1] [nM] | Kd [2] [nM] | Kd [3] [nM]
1 | B1 | 154 ± 4.2 | 1120 ± 42 | 1450 ± 51
2 | B2 | 147 ± 8.3 | 606 ± 46 | 689 ± 39

— paper PMC8497992, “Structural and functional characterization explains loss of dNTPase activity of the cancer-specific R366C/H mutant SAMHD1 proteins”
